One test deals with T1, O4-bS.
T1 chain: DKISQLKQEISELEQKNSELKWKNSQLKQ
Put plainly: two-hybrid library CCNG1.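 Note: natural log of median RNA to DNA barcode read ratio; higher means stronger binding.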

For the next test, the target named is T2, O5-bS.
T2 chain: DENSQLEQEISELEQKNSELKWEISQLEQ
Put plainly: two-hybrid library CCNG1.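 Note: natural log of median RNA to DNA barcode read ratio; higher means stronger binding.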

The target in the next test is T3, O12-bS.
T3 chain: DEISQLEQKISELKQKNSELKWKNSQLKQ
The test is described as follows: two-hybrid library CCNG1.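 Note: natural log of median RNA to DNA barcode read ratio; higher means stronger binding.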

Another test addresses T4, O2-bS.
T4 chain: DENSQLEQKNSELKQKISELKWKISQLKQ
The test is described as follows: two-hybrid library CCNG1.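 Note: natural log of median RNA to DNA barcode read ratio; higher means stronger binding.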

The target in another test is T5, O13-bS.
T5 chain: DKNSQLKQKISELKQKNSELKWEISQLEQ
Put plainly: two-hybrid library CCNG1.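 Note: natural log of median RNA to DNA barcode read ratio; higher means stronger binding.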

The target in another test is T6, O3-bS.
T6 chain: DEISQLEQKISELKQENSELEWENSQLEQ
The test is described as follows: two-hybrid library CCNG1.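 Note: natural log of median RNA to DNA barcode read ratio; higher means stronger binding.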

In the next test the target is T7, O15-bS.
T7 chain: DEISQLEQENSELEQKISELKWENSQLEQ
The test is described as follows: two-hybrid library CCNG1.

In a further test the target is T8, O7-bS.
T8 chain: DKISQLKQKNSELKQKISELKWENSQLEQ
The test is described as follows: two-hybrid library CCNG1.

For the next test, the target named is T9, O8-bS.
T9 chain: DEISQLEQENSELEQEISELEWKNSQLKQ
Put plainly: two-hybrid library CCNG1.

Another test addresses T10, O9-bS.
T10 chain: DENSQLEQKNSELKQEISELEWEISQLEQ
The test is described as follows: two-hybrid library CCNG1.

A further test deals with T11, O14-bS.
T11 chain: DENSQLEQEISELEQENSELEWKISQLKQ
Put plainly: two-hybrid library CCNG1.

In a further test the target is T12, O16-bS.
T12 chain: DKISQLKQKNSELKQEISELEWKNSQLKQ
The test is described as follows: two-hybrid library CCNG1.

The target of another test is T13, O6-bS.
T13 chain: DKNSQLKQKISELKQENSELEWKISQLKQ
Put plainly: two-hybrid library CCNG1.

For the next test, the target named is T14, O12-bP.
T14 chain: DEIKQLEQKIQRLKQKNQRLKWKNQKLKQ
Put plainly: two-hybrid library CCNG1.

The target in the next test is T15, O8-bP.
T15 chain: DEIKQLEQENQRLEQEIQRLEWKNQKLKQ
Put plainly: two-hybrid library CCNG1.

In the next test the target is T16, O6-bP.
T16 chain: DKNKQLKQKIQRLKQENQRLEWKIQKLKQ
The test is described as follows: two-hybrid library CCNG1.

In a further test the target is T17, O9-bP.
T17 chain: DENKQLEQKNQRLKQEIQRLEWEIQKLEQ
The test is described as follows: two-hybrid library CCNG1.

In the next test the target is T18, O3-bP.
T18 chain: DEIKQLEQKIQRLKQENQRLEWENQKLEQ
The test is described as follows: two-hybrid library CCNG1.

For a further test, the target named is T19, O15-bP.
T19 chain: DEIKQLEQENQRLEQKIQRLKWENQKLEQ
The test is described as follows: two-hybrid library CCNG1.

Another test addresses T20, O13-bP.
T20 chain: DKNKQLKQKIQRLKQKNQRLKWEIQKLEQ
Put plainly: two-hybrid library CCNG1.

The target in the next test is T21, O7-bP.
T21 chain: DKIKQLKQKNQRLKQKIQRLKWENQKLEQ
Put plainly: two-hybrid library CCNG1.

In the next test the target is T22, O16-bP.
T22 chain: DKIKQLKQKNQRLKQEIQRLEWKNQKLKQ
Put plainly: two-hybrid library CCNG1.

Another test has as its target T23, O2-bP.
T23 chain: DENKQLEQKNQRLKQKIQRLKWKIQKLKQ
Put plainly: two-hybrid library CCNG1.

For the next test, the target named is T24, O5-bP.
T24 chain: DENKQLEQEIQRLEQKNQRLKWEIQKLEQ
The test is described as follows: two-hybrid library CCNG1.

The next test addresses T25, O4-bP.
T25 chain: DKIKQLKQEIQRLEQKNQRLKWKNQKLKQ
Put plainly: two-hybrid library CCNG1.

In a further test the target is T26, O14-bP.
T26 chain: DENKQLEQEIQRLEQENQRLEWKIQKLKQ
Put plainly: two-hybrid library CCNG1.

The target in the next test is T27, 4H3592-bH.
T27 chain: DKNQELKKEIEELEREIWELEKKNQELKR
The test is described as follows: two-hybrid library CCNG1.

For another test, the target named is T28, 4H4038-bH.
T28 chain: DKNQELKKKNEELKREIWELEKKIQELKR
The test is described as follows: two-hybrid library CCNG1.

Another test addresses T29, 4H3907-bH.
T29 chain: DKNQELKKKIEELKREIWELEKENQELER
Put plainly: two-hybrid library CCNG1.

The target of the next test is T30, 4H1406-bH.
T30 chain: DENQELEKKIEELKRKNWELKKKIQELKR
The test is described as follows: two-hybrid library CCNG1.

The next test deals with T31, 4H3601-bH.
T31 chain: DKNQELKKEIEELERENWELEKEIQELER
Put plainly: two-hybrid library CCNG1.

In the next test the target is T32, 4H3865-AA.
T32 chain: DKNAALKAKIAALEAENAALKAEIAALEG
The test is described as follows: two-hybrid library CCmax. To be noted: mean of both orientations.

The target in a further test is T33, 4H3905-AA.
T33 chain: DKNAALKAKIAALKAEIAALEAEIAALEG
Put plainly: two-hybrid library CCmax. Conditions: mean of both orientations.

In another test the target is T34, 4H4038-AA.
T34 chain: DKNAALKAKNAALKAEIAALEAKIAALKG
The test is described as follows: two-hybrid library CCmax. To be noted: mean of both orientations.

In a further test the target is 4H_GCN4. The test is described as follows: two-hybrid library CCmax.
The next test addresses T35, O11-AA.
T35 chain: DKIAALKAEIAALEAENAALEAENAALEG
The test is described as follows: two-hybrid library CCmax. To be noted: mean of both orientations.

In the next test the target is T36, O5-AA.
T36 chain: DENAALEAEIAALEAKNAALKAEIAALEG
The test is described as follows: two-hybrid library CCmax. To be noted: mean of both orientations.

The target of a further test is T37, P9-AA.
T37 chain: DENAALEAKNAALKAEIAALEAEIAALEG
Put plainly: two-hybrid library CCmax. To be noted: mean of both orientations.

The target of the next test is T38, O14-AA.
T38 chain: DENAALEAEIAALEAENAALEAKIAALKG
The test is described as follows: two-hybrid library CCmax. Conditions: mean of both orientations.

A further test addresses T39, O13-AA.
T39 chain: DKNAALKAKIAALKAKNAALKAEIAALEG
Put plainly: two-hybrid library CCmax. Conditions: mean of both orientations.

The next test deals with T40, O4-AA.
T40 chain: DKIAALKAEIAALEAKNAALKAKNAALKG
Put plainly: two-hybrid library CCmax. Conditions: mean of both orientations.

The target in another test is T41, O8-AA.
T41 chain: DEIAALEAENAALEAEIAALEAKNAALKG
The test is described as follows: two-hybrid library CCmax. To be noted: mean of both orientations.

For the next test, the target named is T42, 4H384-AA.
T42 chain: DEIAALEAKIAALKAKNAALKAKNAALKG
The test is described as follows: two-hybrid library CCmax.

The target in another test is T43, 4H697-AA.
T43 chain: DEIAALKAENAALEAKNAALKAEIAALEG
The test is described as follows: two-hybrid library CCmax. To be noted: mean of both orientations.

For another test, the target named is GCN2_T. Put plainly: two-hybrid library CCmax. To be noted: mean of both orientations.
The next test deals with T44, O2-AA.
T44 chain: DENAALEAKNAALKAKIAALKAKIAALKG
Put plainly: two-hybrid library CCmax. Conditions: mean of both orientations.

The target in another test is T45, O3-AA.
T45 chain: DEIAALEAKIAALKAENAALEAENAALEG
The test is described as follows: two-hybrid library CCmax. Conditions: mean of both orientations.

The next test deals with T46, 4H510-AA.
T46 chain: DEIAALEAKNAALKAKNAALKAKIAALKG
The test is described as follows: two-hybrid library CCmax. To be noted: mean of both orientations.

The target in a further test is T47, O1-AA.
T47 chain: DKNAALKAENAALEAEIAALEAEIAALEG
The test is described as follows: two-hybrid library CCmax. Conditions: mean of both orientations.

The next test concerns the target T48, P10-AA.
T48 chain: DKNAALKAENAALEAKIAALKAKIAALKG
Put plainly: two-hybrid library CCmax. To be noted: mean of both orientations.

The target in the next test is T49, O6-AA.
T49 chain: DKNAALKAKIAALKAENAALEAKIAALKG
The test is described as follows: two-hybrid library CCmax. Conditions: mean of both orientations.

Another test deals with T50, 4H982-AA.
T50 chain: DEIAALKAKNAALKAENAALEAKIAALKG
The test is described as follows: two-hybrid library CCmax. To be noted: mean of both orientations.

In a further test the target is T51, 4H43-AA.
T51 chain: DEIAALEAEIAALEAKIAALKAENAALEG
The test is described as follows: two-hybrid library CCmax. To be noted: mean of both orientations.

Another test has as its target T52, 4H_BCR.
T52 chain: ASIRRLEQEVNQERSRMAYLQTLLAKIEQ
The test is described as follows: two-hybrid library CCmax. Conditions: mean of both orientations.

In a further test the target is T53, O7-AA.
T53 chain: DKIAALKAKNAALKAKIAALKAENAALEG
Put plainly: two-hybrid library CCmax. Conditions: mean of both orientations.

A further test deals with T54, 4H_APH.
T54 chain: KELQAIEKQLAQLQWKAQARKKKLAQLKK
The test is described as follows: two-hybrid library CCmax. To be noted: mean of both orientations.

Another test deals with T55, 4H451-AA.
T55 chain: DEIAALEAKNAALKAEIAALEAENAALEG
The test is described as follows: two-hybrid library CCmax. To be noted: mean of both orientations.

Chain of 4H_GCN4 (chain, as listed by the source): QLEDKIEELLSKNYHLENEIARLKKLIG

Turning to DEISQLEQKISELKQKNSELKWKNSQLKQ [O12-bS], the interaction score with O4-bS is -0.445; with O5-bS, -1.66; with O12-bS, -0.402; in the test with O2-bS it was -0.108; with O13-bS it was -2.21; with O3-bS, 0.395. The interaction score in the test with O15-bS is -0.445; in the test with O7-bS, -0.726; with O8-bS, -0.862; with O9-bS, -0.617; in the test with O14-bS, -2.32; with O16-bS, -1.04. The interaction score in the test with O6-bS was -0.702.
As for DEIKQLEQKIQRLKQKNQRLKWKNQKLKQ [O12-bP], the interaction score in the test with O12-bP was -0.0984; in the test with O8-bP, -1.25; in the test with O6-bP, -1.02; with O9-bP, 0.055; in the test with O3-bP it was -1.45; in the test with O15-bP, -0.827. In addition, the interaction score with O13-bP was -0.964; with O7-bP, -0.715; with O16-bP, -0.648; with O2-bP, -1.14; with O5-bP it was -0.621; with O4-bP, 0.355. In addition, the interaction score with O14-bP is -0.196.
With DENQELEKKIEELKRKNWELKKKIQELKR [4H1406-bH], the interaction score in the test with 4H3592-bH is 1.08; in the test with 4H4038-bH, -0.136; with 4H3907-bH it was 1.11; in the test with 4H1406-bH it was -0.652; with 4H3601-bH, 0.0362.
As to DEIAALEAKIAALKAKNAALKAKNAALKG [4H384-AA], the interaction score with 4H3865-AA was -0.294; with 4H3905-AA, 0.75; with 4H4038-AA it was -1.15; with 4H_GCN4, -2.22; with O11-AA it was 2.48; with O5-AA it was -0.778. Also, the interaction score in the test with P9-AA is -0.334; with O14-AA it was 0.835; with O13-AA, -1.52; in the test with O4-AA, -0.235; in the test with O8-AA, 0.295; with 4H384-AA, -1.34. The interaction score is -1.86 with 4H697-AA; -1.61 with GCN2_T; -1.68 in the test with O2-AA; 1.52 with O3-AA; -1.55 with 4H510-AA; -1.04 with O1-AA. Further, the interaction score with P10-AA is -1.12; in the test with O6-AA, -0.52; with 4H982-AA it was -1.63; in the test with 4H43-AA, 0.71; with 4H_BCR, -2.23; with O7-AA, -1.59. In addition, the interaction score with 4H_APH is -1.66; in the test with 4H451-AA, -0.0732.

The record behind these values is article PMC10397247.
